Measured values as given in article PMC5131778 (Genes & Development, 2016).

Columns and labels:
WD40 domain of Gemin5 = target: T1, WD40 domain of Gemin5 (Homo sapiens, UniProt Q8TEQ6); assay: isothermal titration calorimetry; type: binding
T1 sequence (Q8TEQ6 1-739): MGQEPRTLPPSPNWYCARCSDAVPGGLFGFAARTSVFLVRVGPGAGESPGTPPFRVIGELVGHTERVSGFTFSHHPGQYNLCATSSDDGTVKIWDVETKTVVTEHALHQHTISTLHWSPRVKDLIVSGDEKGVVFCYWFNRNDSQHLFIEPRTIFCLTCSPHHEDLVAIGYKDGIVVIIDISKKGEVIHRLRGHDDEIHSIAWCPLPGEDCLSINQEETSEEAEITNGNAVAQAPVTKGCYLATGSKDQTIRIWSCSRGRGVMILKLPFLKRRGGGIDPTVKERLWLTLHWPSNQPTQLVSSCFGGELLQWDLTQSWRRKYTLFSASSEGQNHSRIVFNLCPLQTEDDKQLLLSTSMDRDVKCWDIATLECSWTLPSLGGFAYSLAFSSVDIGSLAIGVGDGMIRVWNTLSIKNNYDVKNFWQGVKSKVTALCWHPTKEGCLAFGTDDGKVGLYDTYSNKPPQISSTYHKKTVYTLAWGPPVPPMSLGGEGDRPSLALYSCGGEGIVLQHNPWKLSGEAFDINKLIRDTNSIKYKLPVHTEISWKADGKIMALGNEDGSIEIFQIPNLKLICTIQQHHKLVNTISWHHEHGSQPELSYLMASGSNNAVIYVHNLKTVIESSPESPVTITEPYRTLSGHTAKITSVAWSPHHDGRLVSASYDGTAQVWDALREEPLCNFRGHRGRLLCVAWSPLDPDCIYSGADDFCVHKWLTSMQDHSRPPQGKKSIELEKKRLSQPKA

Gemin5 WD40 domain [1] = target: T2, Gemin5 WD40 domain (Homo sapiens, UniProt Q8TEQ6 1-739); assay: ITC
Gemin5 WD40 domain [2] = target: T2, Gemin5 WD40 domain; assay: crystal structure
Gemin5 WD40 E197A = Gemin5 WD40 E197A (Homo sapiens, UniProt Q8TEQ6 1-739, E197A); assay: ITC
Gemin5 WD40 Y474A = Gemin5 WD40 Y474A (Homo sapiens, UniProt Q8TEQ6 1-739, Y474A); assay: ITC

Gemin5 WD40 E197A, sequence (Q8TEQ6 1-739 E197A): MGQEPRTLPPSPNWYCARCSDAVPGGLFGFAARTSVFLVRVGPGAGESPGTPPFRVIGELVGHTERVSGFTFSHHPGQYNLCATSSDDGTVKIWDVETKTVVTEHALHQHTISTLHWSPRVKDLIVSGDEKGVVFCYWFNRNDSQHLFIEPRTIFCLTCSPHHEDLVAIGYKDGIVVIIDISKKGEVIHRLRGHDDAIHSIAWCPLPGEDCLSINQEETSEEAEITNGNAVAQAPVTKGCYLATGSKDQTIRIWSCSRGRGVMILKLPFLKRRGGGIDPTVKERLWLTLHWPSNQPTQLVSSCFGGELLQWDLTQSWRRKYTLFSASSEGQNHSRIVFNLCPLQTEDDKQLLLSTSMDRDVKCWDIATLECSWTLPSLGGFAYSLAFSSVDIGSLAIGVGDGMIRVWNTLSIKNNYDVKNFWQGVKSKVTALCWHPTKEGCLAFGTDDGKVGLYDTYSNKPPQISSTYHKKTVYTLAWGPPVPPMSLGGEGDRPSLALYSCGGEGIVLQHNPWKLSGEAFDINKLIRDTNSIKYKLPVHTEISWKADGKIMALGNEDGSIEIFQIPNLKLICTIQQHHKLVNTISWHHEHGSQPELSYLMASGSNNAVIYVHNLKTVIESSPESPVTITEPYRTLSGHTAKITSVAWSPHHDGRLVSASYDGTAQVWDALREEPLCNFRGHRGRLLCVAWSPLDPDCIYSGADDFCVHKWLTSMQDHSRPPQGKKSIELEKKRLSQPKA

Question: How did the Kd (WD40 domain of Gemin5) turn out when `C[n+]1cn([C@@H]2O[C@H](COP(=O)(O)OP(=O)(O)OP(=O)(O)OC[C@H]3O[C@@H](n4cnc5c(=O)[nH]c(N)nc54)[C@H](O)[C@@H]3O)[C@@H](O)[C@H]2O)c2nc(N)[nH]c(=O)c21` [m^7GpppG] was run?
Answer: Its Kd is 4 µM.

Question: With AAUCUUUG (ssRNA) [pre-U4 (118-125) U121C] as the molecule, how does the Kd (Gemin5 WD40 domain [1]) read?
Answer: The Kd was 11 ± 2 µM.

Question: Does AAUUUUUGAG (ssRNA) [pre-U4 (118-127) crystal RNA] bind (Gemin5 WD40 domain [2])?
Answer: Result: binds

Question: Does AAUUCUUG (ssRNA) [pre-U4 (118-125) U122C] bind (Gemin5 WD40 domain [1])?
Answer: Result: no binding

Question: Does AACUUUUG (ssRNA) [pre-U4 (118-125) U120C] bind (Gemin5 WD40 domain [1])?
Answer: Result: no binding

Question: What does the source list for AAUUUUUG (ssRNA) [pre-U4 (118-125) Sm site]?
Answer: Kd (Gemin5 WD40 E197A): 40 ± 5 µM; binding result (Gemin5 WD40 Y474A): binds

Question: Does AAUUGUUG (ssRNA) [pre-U4 (118-125) U122G] bind (Gemin5 WD40 domain [1])?
Answer: Result: no binding
